Data on one molecule can be found in article PMC8051872.

For this test, the target named is wild-type full-length human ADAMTS13 (human) (UniProt Q76LX8).

B1: wild-type full-length human ADAMTS13 (enzyme)
chain: AAGGILHLELLVAVGPDVFQAHQEDTERYVLTNLNIGAELLRDPSLGAQFRVHLVKMVILTEPEGAPNITANLTSSLLSVCGWSQTINPEDDTDPGHADLVLYITRFDLELPDGNRQVRGVTQLGGACSPTWSCLITEDTGFDLGVTIAHEIGHSFGLEHDGAPGSGCGPSGHVMASDGAAPRAGLAWSPCSRRQLLSLLSAGRARCVWDPPRPQPGSAGHPPDAQPGLYYSANEQCRVAFGPKAVACTFAREHLDMCQALSCHTDPLDQSSCSRLLVPLLDGTECGVEKWCSKGRCRSLVELTPIAAVHGRWSSWGPRSPCSRSCGGGVVTRRRQCNNPRPAFGGRACVGADLQAEMCNTQACEKTQLEFMSQQCARTDGQPLRSSPGGASFYHWGAAVPHSQGDALCRHMCRAIGESFIMKRGDSFLDGTRCMPSGPREDGTLSLCVSGSCRTFGCDGRMDSQQVWDRCQVCGGDNSTCSPRKGSFTAGRAREYVTFLTVTPNLTSVYIANHRPLFTHLAVRIGGRYVVAGKMSISPNTTYPSLLEDGRVEYRVALTEDRLPRLEEIRIWGPLQEDADIQVYRRYGEEYGNLTRPDITFTYFQPKPRQAWVWAAVRGPCSVSCGAGLRWVNYSCLDQARKELVETVQCQGSQQPPAWPEACVLEPCPPYWAVGDFGPCSASCGGGLRERPVRCVEAQGSLLKTLPPARCRAGAQQPAVALETCNPQPCPARWEVSEPSSCTSAGGAGLALENETCVPGADGLEAPVTEGPGSVDEKLPAPEPCVGMSCPPGWGHLDATSAGEKAPSPWGSIRTGAQAAHVWTPAAGSCSVSCGRGLMELRFLCMDSALRVPVQEELCGLASKPGSRREVCQAVPCPARWQYKLAACSVSCGRGVVRRILYCARAHGEDDGEEILLDTQCQGLPRPEPQEACSLEPCPPRWKVMSLGPCSASCGLGTARRSVACVQLDQGQDVEVDEAACAALVRPEASVPCLIADCTYRWHVGTWMECSVSCGDGIQRRRDTCLGPQAQAPVPADFCQHLPKPVTVRGCWAGPCVGQGTPSLVPHEEAAAPGRTTATPAGASLEWSQARGLLFSPAPQPRRLLPGPQENSVQSSACGRQHLEPTGTIDMRGPGQADCAVAIGRPLGEVVTLRVLESSLNCSAGDMLLLWGRLTWRKMCRKLLDMTFSSKTNTLVVRQRCGRPGGGVLLRYGSQLAPETFYRECDMQLFGPWGEIVSPSLSPATSNAGGCRLFINVAPHARIAIHALATNMGAGTEGANASYILIRDTHSLRTTAFHGQQVLYWESESSQAEMEFSEGFLKAQASLRGQYWTLQSWVPEMQDPQSWKGKEGT
For B1, the percent enhancement by antibody 17G2 of catalytic efficiency (kcat/Km) of VWF96 proteolysis; intramolecular Spacer-CUB interaction within full-length ADAMTS13 was 188%.
